How the values were obtained:
MUTE-SCRM heterodimer = biological target: T1, MUTE-SCRM heterodimer (A. thaliana, UniProt Q9M8K6 1-202; Q9LSE2 1-494); assay: BLI; Octet Red96; Ni-NTA probes loaded with 500 nM His tagged BPC1 or BPC2; heterodimer as analyte at seven concentrations (200 to 3.12 nM by the methods); 30 °C; 1× PBS with 0.02% Tween 20; 1:1 model, Kd by steady-state analysis; conditions: both partners purified
T1 construct: MUTE, Arabidopsis thaliana, residues 1-202, in pET28a; also called SCRM-MUTE heterodimer; source: E. coli BL21, purified (MUTE: Ni-NTA, gel filtration; SCRM: glutathione resin, thrombin, gel filtration); not shown: GST, N-terminal, cleaved
T1 sequence (looked up) 1: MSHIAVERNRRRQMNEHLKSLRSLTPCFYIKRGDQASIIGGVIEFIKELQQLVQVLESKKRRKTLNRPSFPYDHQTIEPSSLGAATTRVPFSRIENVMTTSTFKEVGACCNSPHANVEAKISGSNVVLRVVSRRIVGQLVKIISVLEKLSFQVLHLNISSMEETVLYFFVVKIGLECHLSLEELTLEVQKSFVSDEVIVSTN
T1 sequence (looked up) 2: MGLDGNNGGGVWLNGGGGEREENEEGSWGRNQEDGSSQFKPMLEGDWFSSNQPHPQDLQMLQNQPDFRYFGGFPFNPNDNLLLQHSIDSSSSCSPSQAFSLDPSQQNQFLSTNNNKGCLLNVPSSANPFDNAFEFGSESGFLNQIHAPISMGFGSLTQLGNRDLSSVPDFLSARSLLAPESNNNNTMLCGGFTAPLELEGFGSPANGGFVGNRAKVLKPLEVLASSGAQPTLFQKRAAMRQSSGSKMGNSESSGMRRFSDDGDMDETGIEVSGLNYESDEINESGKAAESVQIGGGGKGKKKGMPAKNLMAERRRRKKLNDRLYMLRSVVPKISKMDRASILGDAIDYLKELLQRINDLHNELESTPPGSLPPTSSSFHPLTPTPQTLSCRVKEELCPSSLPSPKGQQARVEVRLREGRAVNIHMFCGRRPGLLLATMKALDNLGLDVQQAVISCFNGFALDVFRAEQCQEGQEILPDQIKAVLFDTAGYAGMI

His tagged BPC1 (1-283) = biological target: T2, His tagged BPC1 (1-283) (A. thaliana, UniProt Q9SKD0 1-283); assay: BLI
T2 chain: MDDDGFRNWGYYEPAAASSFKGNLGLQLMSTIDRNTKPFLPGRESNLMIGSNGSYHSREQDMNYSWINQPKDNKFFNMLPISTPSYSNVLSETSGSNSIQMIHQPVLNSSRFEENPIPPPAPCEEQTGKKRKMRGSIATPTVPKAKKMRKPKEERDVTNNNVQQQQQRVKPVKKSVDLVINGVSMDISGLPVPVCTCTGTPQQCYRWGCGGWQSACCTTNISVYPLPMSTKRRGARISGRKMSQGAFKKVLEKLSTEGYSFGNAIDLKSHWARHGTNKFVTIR

His tagged BPC2 (1-279) = biological target: T3, His tagged BPC2 (1-279) (A. thaliana, UniProt Q9LDE2 1-279); assay: BLI
T3 chain: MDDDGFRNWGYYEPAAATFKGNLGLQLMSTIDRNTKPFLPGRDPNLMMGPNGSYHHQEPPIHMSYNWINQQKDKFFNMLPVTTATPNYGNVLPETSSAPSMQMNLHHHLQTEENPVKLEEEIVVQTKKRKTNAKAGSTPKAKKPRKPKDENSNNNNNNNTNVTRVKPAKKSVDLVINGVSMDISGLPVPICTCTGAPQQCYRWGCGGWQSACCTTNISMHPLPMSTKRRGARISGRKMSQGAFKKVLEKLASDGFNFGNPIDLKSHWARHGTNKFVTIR

B1: His tagged BPC2 (1-279) (natural protein, A. thaliana, UniProt Q9LDE2 1-279, looked up)
chain: T3 chain
notes: BPC2 (BASIC … 2), Arabidopsis thaliana, residues 1-279, in pET28a; source: E. coli BL21, purified (Ni-NTA, gel filtration on Superdex-200); not shown: His tag, N-terminal, kept
B1 showed a Kd (MUTE-SCRM heterodimer) of 11 ± 1.6 nM.

B2: His tagged BPC1 (1-283) (natural protein, A. thaliana, UniProt Q9SKD0 1-283, looked up)
chain: T2 chain
notes: BPC1 (BASIC … 1), Arabidopsis thaliana, residues 1-283, in pET28a; source: E. coli BL21, purified (Ni-NTA, gel filtration on Superdex-200); not shown: His tag, N-terminal, kept
B2 showed a Kd (MUTE-SCRM heterodimer) of 4.8 ± 1.6 nM.

B3: SPCH-SCRM heterodimer (complex)
chain 1: MQEIIPDFLEECEFVDTSLAGDDLFAILESLEGAGEISPTAASTPKDGTTSSKELVKDQDYENSSPKRKKQRLETRKEEDEEEEDGDGEAEEDNKQDGQQKMSHVTVERNRRKQMNEHLTVLRSLMPCFYVKRGDQASIIGGVVEYISELQQVLQSLEAKKQRKTYAEVLSPRVVPSPRPSPPVLSPRKPPLSPRINHHQIHHHLLLPPISPRTPQPTSPYRAIPPQLPLIPQPPLRSYSSLASCSSLGDPPPYSPASSSSSPSVSSNHESSVINELVANSKSALADVEVKFSGANVLLKTVSHKIPGQVMKIIAALEDLALEILQVNINTVDETMLNSFTIKIGIECQLSAEELAQQIQQTFC
chain 2: T1 sequence (looked up) 2
Work on B3 yielded a Kd (His tagged BPC1 (1-283)) of 126 nM and a Kd (His tagged BPC2 (1-279)) of 227 nM.
